The target in data set [1] is human PKD1 kinase domain (PKD1^CAT, residues 569–892) (human) (UniProt Q15139). The experiment in a line: SEC-MALS; PKD1^CAT, first run, 625 μg injected. A general note: SEC sorts molecules by how far they enter the pores of the column.
Data set [2] has the same target. Kind of data set: fluorescence polarisation; fluorescence anisotropy; 195 μM PKD1^CAT with 80 nM Atto488-labeled PKD1^CAT successively diluted with buffer containing 80 nM labeled protein; 50 mM Tris pH 7.5, 220 mM KCl, 1% glycerol, 1 mM TCEP; 20 °C; single binding model; dimer to monomers.
Data set [3] deals with the molecule itself. The experiment in a line: SEC-MALS; Superdex 200 10/300; 20 mM Tris pH 7.5, 150 mM KCl, 1 mM TCEP; 50 μl of 2.5 mg/ml protein injected.
In data set [4] the target is T1, Atto488-labeled DKF-1 ULD^R42C (C. elegans, UniProt Q9XUJ7 1-94, R42C, Atto488 (maleimide-conjugated) on cysteine 42).
T1 construct: C. elegans DKF-1, residues 1-94 (ubiquitin-like domain) with the surface-exposed arginine 42 mutated to cysteine; Labeling efficiency estimated at about 80%; also called Atto488-ULD^R42C; source: E. coli BL21*, purified in the same way as the WT counterpart, labelled with maleimide-Atto488; not shown: GST, N-terminal, cleaved
T1 sequence (looked up): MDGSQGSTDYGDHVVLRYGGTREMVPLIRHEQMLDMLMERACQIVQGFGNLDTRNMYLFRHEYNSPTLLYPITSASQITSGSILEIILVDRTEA
The experiment in a line: fluorescence polarisation; fluorescence anisotropy; ULD or ULD^F59E (222 or 150 μM stock) titrated into 35–70 nM Atto488-ULD^R42C; 20 mM Tris pH 7.5, 150 mM KCl, 1% glycerol, 1 mM TCEP; 20 °C; single-site binding model; dimer to monomers. The settings on record: both partners purified. (Fluorescence polarisation rises when a labelled molecule tumbles more slowly, as on binding a larger partner.)

Data set [5] concerns the molecule itself. Kind of data set: fluorescence polarisation; fluorescence anisotropy; unlabeled PKD1 ULD (800 μM stock) titrated into 40 nM Atto488-labeled PKD1 ULD; 20 mM Tris pH 7.5, 150 mM KCl, 1 mM TCEP, 1% glycerol; 20 °C; single binding model; dimer to monomers.

What is called stoichiometry N is a count of units in the complex or per binding partner. The term Kd denotes the equilibrium constant for the complex coming apart. Read a high Kd as weaker binding.

Where a chain is given by its changes, count along the chain named.

In turn, “human PKD1 kinase domain (PKD1^CAT, residues 569–892) (from UniProt Q15139 569-892) (domain or fragment)” showed a stoichiometry N in data set [1] of 2. The molecule also had a Kd in data set [2] of 50000 nM.

B1: DKF-1 ULD (DKF-1^1–94) (domain or fragment, C. elegans, UniProt Q9XUJ7 1-94, looked up)
chain: T1 sequence (looked up) with C42R
notes: C. elegans PKD homolog DKF-1, residues 1-94 (ubiquitin-like domain); also called ULD^WT; source: E. coli BL21*, purified (GSH beads, TEV cleavage on beads, SEC); not shown: GST, N-terminal, cleaved
For B1, the “stoichiometry N” value in data set [3] is 2. For the same molecule, the dissociation constant Kd in data set [4] came to 650 ± 70 nM.

B2: DKF-1 ULD–C1a (DKF-1^1–151) (domain or fragment, C. elegans, UniProt Q9XUJ7 1-151, looked up)
chain: MDGSQGSTDYGDHVVLRYGGTREMVPLIRHEQMLDMLMERARQIVQGFGNLDTRNMYLFRHEYNSPTLLYPITSASQITSGSILEIILVDRTEAAVIPHVVEPESYMRPTFCDFCGEMLTGLMRQGVKCKNCNGNFHKRCSNAARNNCGAP
notes: C. elegans PKD homolog DKF-1, residues 1-151 (ubiquitin-like domain and C1a domain); The final crystallographic model comprises residues 12-151; also called PKD N terminus; source: E. coli BL21*, purified (GSH beads, TEV cleavage on beads, SEC); not shown: GST, N-terminal, cleaved
Regarding B2, the “stoichiometry N” value in data set [3] amounted to 2.

B3: human PKD3 ULD (PKD3^55–149) (domain or fragment, UniProt O94806 55-149, looked up)
chain: GSVHTVSFLLQIGLTRESVTIEAQELSLSAVKDLVCSIVYQKFPECGFFGMYDKILLFRHDMNSENILQLITSADEIHEGDLVEVVLSALATVED
notes: human protein kinase D3 (PKD3), residues 55-149 (ubiquitin-like domain); also called ULD of human PKD3; source: E. coli BL21*, purified (GSH beads, TEV cleavage on beads, SEC); not shown: GST, N-terminal, cleaved
In the case of B3, the “stoichiometry N” value in data set [3] stood at 2.

B4: human PKD1 ULD (PKD1^48–143) (domain or fragment, UniProt Q15139 48-143, looked up)
chain: GISFHLQIGLSREPVLLLQDSSGDYSLAHVREMACSIVDQKFPECGFYGMYDKILLFRHDPTSENILQLVKAASDIQEGDLIEVVLSASATFEDFQ
notes: human protein kinase D1 (PKD1), residues 48-143 (ubiquitin-like domain); In the anisotropy titration 40 nM of the same protein carried Atto488 (maleimide) on its surface-exposed cysteines (labeling efficiency 50%); Addgene 31527 is the plasmid carrying the PKD1 gene; also called ULD of human PKD1; source: E. coli BL21*, purified (GSH beads, TEV cleavage on beads, SEC); not shown: GST, N-terminal, …
For the molecule B4, the “stoichiometry N” value in data set [3] was 2. The molecule also came in with an equilibrium dissociation constant (Kd) in data set [5] of 1700 ± 200 nM.
